What was measured:
[1] = biological target: Kohinoor; assay: SEC; purified protein diluted to 10 μM, equilibrated at 6 °C overnight; 250 μL on Superdex 200 Increase 10/300 GL, run at 6 °C, 0.75 mL/min, absorption at 280 nm; elution volumes compared with tetrameric DsRed, dimeric dTomato and monomeric mEGFP
[2] = biological target: Padron; assay: as above

| Substance | stoichiometry N [1] | stoichiometry N [2] |
| --- | --- | --- |
| Kohinoor | 2 | – |
| Padron | – | 4 |
